Reference: patent publication US20240158489A1

Legend:
Conditions in all cases: bispecific antibody
huANG2 [1] = biological target: huANG2 (UniProt O15123); test: -; FIG. 2B
huVEGF = huVEGF (UniProt P15692); test: -; FIG. 2B
huANG2 [2] = biological target: huANG2 (UniProt O15123); test: -; FIG. 2A

Sequence of huANG2 (O15123 19-496): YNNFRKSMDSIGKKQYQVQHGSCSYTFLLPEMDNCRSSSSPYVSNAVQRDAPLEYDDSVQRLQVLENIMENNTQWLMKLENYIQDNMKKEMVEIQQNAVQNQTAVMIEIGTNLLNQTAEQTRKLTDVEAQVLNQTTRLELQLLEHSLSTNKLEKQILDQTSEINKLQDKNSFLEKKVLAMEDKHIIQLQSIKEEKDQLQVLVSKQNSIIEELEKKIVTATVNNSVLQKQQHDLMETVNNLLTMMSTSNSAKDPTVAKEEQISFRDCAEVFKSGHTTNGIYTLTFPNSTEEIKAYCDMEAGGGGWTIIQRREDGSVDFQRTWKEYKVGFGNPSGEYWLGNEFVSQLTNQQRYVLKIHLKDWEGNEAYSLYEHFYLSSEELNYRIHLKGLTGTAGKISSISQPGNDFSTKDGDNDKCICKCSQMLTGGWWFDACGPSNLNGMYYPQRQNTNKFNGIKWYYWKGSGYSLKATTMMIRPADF
Sequence of huVEGF (P15692 other isoform, or with tags, fused parts or gaps): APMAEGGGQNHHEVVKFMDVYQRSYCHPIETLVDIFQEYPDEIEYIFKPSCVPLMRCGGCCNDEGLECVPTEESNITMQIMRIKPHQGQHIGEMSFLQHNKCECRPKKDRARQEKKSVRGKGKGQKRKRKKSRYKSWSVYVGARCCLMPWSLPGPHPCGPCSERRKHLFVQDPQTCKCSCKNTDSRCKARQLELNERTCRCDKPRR

anti-ANG-2×VEGF bispecific antibody ABP201
Kd (huANG2 [1]): 32.1 nM
Kd (huVEGF): 1.37 nM
Kd (huANG2 [2]): 32.1 nM
